Reference: US20160376339A1 (CURACLE, published 2016)
Where no end group is shown, it is not given here.

T1: His-tagged PH domain of PDK1 (purified) (UniProt O15530 409-556, limits assumed)
T1 construct: domain: PH domain; Expressed in E. coli BL21 and purified on Ni2+-NTA-agarose; also called His-PH; His-tagged PDK1PH; not shown: His tag from vector pET32a
T1 sequence (looked up): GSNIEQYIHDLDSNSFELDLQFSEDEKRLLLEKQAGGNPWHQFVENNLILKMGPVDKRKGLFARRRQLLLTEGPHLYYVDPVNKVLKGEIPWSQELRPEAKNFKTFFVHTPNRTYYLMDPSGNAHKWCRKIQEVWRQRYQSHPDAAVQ

T2: Flag-PDK1 (UniProt O15530 1-556, limits assumed)
T2 construct: Expressed in HEK293T cells for co-immunoprecipitation; not shown: Flag tag
T2 sequence (looked up): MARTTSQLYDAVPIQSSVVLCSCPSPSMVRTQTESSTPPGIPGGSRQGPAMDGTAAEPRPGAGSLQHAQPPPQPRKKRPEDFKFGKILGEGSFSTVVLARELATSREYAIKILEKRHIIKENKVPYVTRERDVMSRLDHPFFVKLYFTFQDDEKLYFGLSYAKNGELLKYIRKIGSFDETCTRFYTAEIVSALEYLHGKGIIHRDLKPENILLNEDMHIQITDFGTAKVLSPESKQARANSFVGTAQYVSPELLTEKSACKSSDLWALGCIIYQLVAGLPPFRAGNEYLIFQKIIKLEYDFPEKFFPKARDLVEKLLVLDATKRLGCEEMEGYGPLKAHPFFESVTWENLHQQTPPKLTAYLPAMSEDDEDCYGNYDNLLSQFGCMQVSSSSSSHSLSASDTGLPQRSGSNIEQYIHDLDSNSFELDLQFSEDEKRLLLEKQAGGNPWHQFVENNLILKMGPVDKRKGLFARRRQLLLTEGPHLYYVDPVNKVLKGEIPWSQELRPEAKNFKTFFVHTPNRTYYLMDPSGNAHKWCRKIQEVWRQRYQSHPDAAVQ


Legend:
[1] = biological target: T1, His-tagged PH domain of PDK1 (purified); assay: Far-western analysis and GST pull-down with purified proteins
Procedure: GST and His-fused proteins (1.5 mg/ml:1.5 mg/ml) were incubated for 2 h at 4° C., immobilized on Ni²⁺-NTA resin or glutathione-Sepharose 4B beads, and incubated for 30 min. Proteins were then eluted with elution buffer (25 mM NaPi, 300 mM NaCl, 5 mM β-mercaptoethanol, 500 mM imidazole, pH 7.5), western blot was performed with anti-GST and His antibodies.
Briefly, purified GST-tagged proteins (1 μg) were loaded and separated, and then transferred to PVDF membranes. The membranes were denatured and renatured, incubated with purified His-tagged PH domain proteins (10 μg), and then detected with anti-His antibody.

[2] = biological target: T2, Flag-PDK1; assay: co-immunoprecipitation of GFP-tagged truncated AMIGO2 with Flag-PDK1
Source text: The immunoprecipitated proteins were obtained by using protein A-agarose beads (Upstate Biotechnology), and detected by SDS-PAGE.

[3] = biological target: T2, Flag-PDK1; assay: co-immunoprecipitation of GFP-tagged deletion mutants with Flag-PDK1

| binding result [1] | Binder | further results |
| --- | --- | --- |
| no binding | TPCPCKCKTKRQKNMLHQSNAHSSILSPGPASDAS (other, cysteine pairing not given here; also: GST tag of pGEX 4T1 (sequence not given here), Same forward primer and linker as GST-CD; not shown: glutathione S-transferase tag of vector pGEX 4T1) [GST-tagged AMIGO2 420-454] |  |
|  | AMIGO2^457aa (GFP-tagged AMIGO2 truncated after residue 457) (receptor, The range 1-457 is read from the name and from the reverse primer with its stop codon; also called 457aa construct; not shown: EGFP tag) VCPTACICATDIVSCTNKNLSKVPGNLFRLIKRLDLSYNRIGLLDSEWIPVSFAKLNTLILRHNNITSISTGSFSTTPNLKCLDLSSNKLKTVKNAVFQELKVLEVLLLYNNHISYLDPSAFGGLSQLQKLYLSGNFLTQFPMDLYVGRFKLAELMFLDVSYNRIPSMPMHHINLVPGKQLRGIYLHGNPFVCDCSLYSLLVFWYRRHFSSVMDFKNDYTCRLWSDSRHSRQVLLLQDSFMNCSDSIINGSFRALGFIHEAQVGERLMVHCDSKTGNANTDFIWVGPDNRLLEPDKEMENFYVFHNGSLVIESPRFEDAGVYSCIAMNKQRLLNETVDVTINVSNFTVSRSHAHEAFNTAFTTLAACVASIVLVLLYLYLTPCPCKCKTKRQKNMLHQSNAHSSILSPGPASDASADE | binding result [2]: no binding |
| no binding | TPCPCKCKTKRQKNMLHQSNAHSSILSPGPASDASADERKAGAGK (other, cysteine pairing not given here; also: GST tag of pGEX 4T1 (sequence not given here), Same forward primer and linker as GST-CD; not shown: glutathione S-transferase tag of vector pGEX 4T1) [GST-tagged AMIGO2 420-464] |  |
|  | AMIGO2^ΔCD (GFP-tagged AMIGO2 with residues 420-522 deleted) (receptor, The range 1-419 is derived from it; also called AMIGO2 without cytosolic Domain; not shown: EGFP tag) VCPTACICATDIVSCTNKNLSKVPGNLFRLIKRLDLSYNRIGLLDSEWIPVSFAKLNTLILRHNNITSISTGSFSTTPNLKCLDLSSNKLKTVKNAVFQELKVLEVLLLYNNHISYLDPSAFGGLSQLQKLYLSGNFLTQFPMDLYVGRFKLAELMFLDVSYNRIPSMPMHHINLVPGKQLRGIYLHGNPFVCDCSLYSLLVFWYRRHFSSVMDFKNDYTCRLWSDSRHSRQVLLLQDSFMNCSDSIINGSFRALGFIHEAQVGERLMVHCDSKTGNANTDFIWVGPDNRLLEPDKEMENFYVFHNGSLVIESPRFEDAGVYSCIAMNKQRLLNETVDVTINVSNFTVSRSHAHEAFNTAFTTLAACVASIVLVLLYLYL | binding result [3]: no binding |
